# Laboratory results: patent publication US20220090138A1
# Columns and labels:
# [1] = biological target: … (EBV LMP2A) presented by HLA-A*0201 (human); test: cell-based or functional assay
# [2] = biological target: … (HCMV pp65) presented by HLA-A*0201 (human); test: cell-based or functional assay
substance,measurement,setting,value
TCR recognizing … presented by A*0201 (PDB #3REV),in vitro T cell activation assay (luciferase); targeting cassette design A,[1],6.1
same,in vitro T cell activation assay (luciferase); targeting cassette design B,[1],6.3
same,in vitro T cell activation assay (luciferase); targeting cassette design C,[1],7.6
same,in vitro T cell activation assay (luciferase); targeting cassette design D,[1],7
same,in vitro T cell activation assay (luciferase); targeting cassette design E,[1],5.9
same,in vitro T cell activation assay (luciferase); targeting cassette design F,[1],3.7
same,in vitro T cell activation assay (luciferase); targeting cassette design G,[1],7.6
same,in vitro T cell activation assay (luciferase); targeting cassette design H,[1],5.4
same,in vitro T cell activation assay (luciferase); targeting cassette design I,[1],6.2
same,in vitro T cell activation assay (luciferase); targeting cassette design J,[1],6.4
same,"induction of luciferase, in vitro T cell activation assay; short cassette AAY",[1],11.3
same,"luciferase induction, in vitro T cell activation assay; short cassette 9AA (relative to uninfected controls)",[1],12
same,"luciferase induction, in vitro T cell activation assay; short cassette 17AA (relative to uninfected controls)",[1],10.3
same,"luciferase induction, in vitro T cell activation assay; short cassette 25AA (relative to uninfected controls)",[1],14.6
same,"luciferase induction, in vitro T cell activation assay; short cassette AAY (relative to uninfected controls)",[1],11.3
same,"luciferase induction, in vitro T cell activation assay; short cassette RR (relative to uninfected controls)",[1],8.5
TCR recognizing … presented by A*0201 (PDB #5D2N),in vitro T cell activation assay (luciferase); targeting cassette design A,[2],32.5
same,in vitro T cell activation assay (luciferase); targeting cassette design B,[2],31.8
same,in vitro T cell activation assay (luciferase); targeting cassette design C,[2],29.1
same,in vitro T cell activation assay (luciferase); targeting cassette design D,[2],29.1
same,in vitro T cell activation assay (luciferase); targeting cassette design E,[2],28.4
same,in vitro T cell activation assay (luciferase); targeting cassette design F,[2],20.4
same,in vitro T cell activation assay (luciferase); targeting cassette design G,[2],35
same,in vitro T cell activation assay (luciferase); targeting cassette design H,[2],30.3
same,in vitro T cell activation assay (luciferase); targeting cassette design I,[2],22.5
same,in vitro T cell activation assay (luciferase); targeting cassette design J,[2],38.1
same,"induction of luciferase, in vitro T cell activation assay; short cassette AAY",[2],24.5
same,"luciferase induction, in vitro T cell activation assay; short cassette 9AA (relative to uninfected controls)",[2],33.6
same,"luciferase induction, in vitro T cell activation assay; short cassette 17AA (relative to uninfected controls)",[2],42.8
same,"luciferase induction, in vitro T cell activation assay; short cassette 25AA (relative to uninfected controls)",[2],42.3
same,"luciferase induction, in vitro T cell activation assay; short cassette AAY (relative to uninfected controls)",[2],24.5
same,"luciferase induction, in vitro T cell activation assay; short cassette DPP (linker designed to disrupt antigen processing) (relative to uninfected controls)",[2],0.9
same,"luciferase induction, in vitro T cell activation assay; short cassette RR (relative to uninfected controls)",[2],21.7
